# Assay results: patent US11160886B2, “Method for labeling of sensitive and thermosensitive targeting biomolecules with technetium based compounds” (BRACCO IMAGING SPA, priority 2016, dated 2021)
# How the values were obtained:
# [1] = tested on: αvβ3 integrins; type: in vivo, NOD/SCID mice; conditions: 120 min post injection
# Procedure: Before injection, ^99mTc complexes were purified using a reversed-phase C18 Sep-Pack cartridge to remove the excess of unlabeled ligands. After purification, the activity recovered was further diluted with PBS to obtain a final solution that is <0.5% in EtOH content. The RCP and the stability of the purified complexes were evaluated prior to in vivo administration and for the succeeding 18 h.
# Distribution in Tumor Bearing Mice.
# Tumor uptake studies were performed on complex 9 in NOD/SCID mice to determine the effective capability of the complex to detect in vivo endogenously expressed αvβ3 integrins. For induction of tumor xenografts, M21 (αvβ3 positive) and M21L (αvβ3 negative) cells were subcutaneously injected at a concentration of 5×10^6 cells/mouse and allowed to grow until tumor of 3 mm is palpable. The solution containing the purified radiolabeled peptide (15 μCi/200 μL) was injected intravenously into the tail vein. The animals (n=5) were sacrificed by cervical dislocation at 2 h post injection. Tumors and other tissues (blood, heart, lung, liver, kidneys, stomach, intestine, muscle) were removed, weighed, and the activity was counted in a Nal well counter. The results were expressed as the percentage of injected activity per gram of tissue (% IA/g) and tumor to organ ratios were calculated.
# [2] = Challenge reactions (transchelation) with excess Cys, GSH or EDTA, RCP by HPLC; type: physicochemical; conditions: Cys 10 mM; for % RCP after incubation with excess Cys: 37° C.
# Procedure: The transchelation studies were performed for some compounds monitoring by HPLC the radiochemical purity (RCP) of the complexes in presence of an excess of exchanging ligands over the time. The experiments were performed in triplicate.
# Challenge experiments were carried out on the purified [^99mTc(N)(PNP3OH)]-labeled small size compounds (complex 1, complex 2, complex 9 and complex 10) using an excess of glutathione (GSH) or Cys. An aliquot (50 μl) of an aqueous stock solution of cysteine hydrochloride (10 mM; 1 mM) was added to a propylene test tube containing PB (250 μl, 0.2 M; pH 7.4), water (100 μl) and the selected [^99mTc(N)(PNP3OH)]-compound (100 μl). The mixture was vortexed and incubated at 37° C. for 24 h. A control reaction containing an equal volume of water, instead of cysteine hydrochloride, was studied in parallel. At 30 min, 1, 3 and 24 h, aliquots of the reaction mixture were withdrawn and analyzed by HPLC chromatography. A similar procedure was applied using GSH (50 μl, 10 mM) as challenge ligand.
# For [^99mTc(N)(PNP3OH)(Cys-Gly-Lys-Gly-ApoMb)]^+ (“Cys-Gly-Lys-Gly” disclosed as SEQ ID NO: 1) additional experiments were conducted using EDTA (50 μl, 10 mM) as exchanging ligand.
# [3] = Sera and homogenates stability; type: in vitro ADME, human and rat; conditions: 37° C.
# Procedure: Sera and Homogenates Stability.
# The in vitro stability of complex 1, complex 2, complex 9 and complex 11 was evaluated by monitoring the RCP at different time points using the following procedures. In a propylene test tube 50 μl of purified [^99mTc(N)(PNP3OH)]-compound were added to: a) 450 μl of human serum, b) 450 μl of rat serum, c) 450 μl of homogenate of rat liver and d) 450 μl of homogenate of rat kidneys. The resulting mixture was incubated at 37° C. for 4 h.
# The sample was loaded onto a cartridge, preconditioned with MeOH (1 ml) and equilibrated with water (1 ml), and rinsed with MeOH 5% (3 ml). The activity was eluted with a mixture of EtOH/saline 60% (1 ml). Each fraction was collected and the activity measured using a counter (Cobra II, Packard) to determinate the elution profile. 80% of the loaded activity was collected in the elution fraction. An aliquot of this solution (100 μl) was analyzed by HPLC to assess the degradation of the ^99mTc(N)-complexes (FIG. 11).
# [4] = Stability in RPMI1640 cell culture medium; type: physicochemical
# Procedure: Before the cell experiments, the stability of the purified complex 9 in RPMI1640 medium was evaluated. The radiolabeled peptide was found stable. Data were compared with those of the ^99mTc-HYNIC-RGDfK labeled compound produced according to literature (Decristoforo C, Santos I, Pietzsch H J, Kuenstler J U, Duatti A, Smith C J, Rey A, Alberto R, Von Guggenberg E, Haubner R. Comparison of in vitro and in vivo properties of [99mTc]cRGD peptides labeled using different novel Tc-cores.Q J Nucl Med Mol Imaging. (2007), 51, 33-41).
# Thus, to a glass test tube containing 990 μL of cell culture media was added 10 μL of a solution containing 10 μCi of complex 9. The mixture was vortexed and incubated at 37° C. for 2 h. At 30 min, 1 and 2 h, 100 μl of the reaction mixture were withdrawn and analyzed by HPLC chromatography. The radiochemical purity (RCP) of the complexes was found >90%.
# [5] = Metabolites in the urine; type: in vivo, rats; conditions: urine at 2 and 4 h p.i.
# Procedure: Metabolites in the Urine.
# At 2 and 4 h p.i. the urine was collected directly from the bladder and analyzed by HPLC (FIG. 12).
# [6] = Isomeric conversion over 24 h at 37° C.; type: physicochemical
# Procedure: Before the experiments for both complex 11 and complex 9, the two isomers were isolated by HPLC and their isomeric conversion was assessed over 24 h at 37° C.
# In addition, a faster b vs a change was noticed. Therefore, for the radiolabeled peptide the mixture of the two isomeric forms in ratio 70/30 was directly utilized for receptor affinity studies.
substance,measurement,setting,value
[^99mTc(N)(PNP3OH)(Cys-cRGDfK)]^+ [Complex 9],Tumor uptake: M21,"[1]; M21 (αvβ3 positive) tumor, mice",4.38±0.69 % IA/g
same,Tumor uptake: M21L,"[1]; M21L (αvβ3 negative) tumor, mice",1.05 ± 0.62 % IA/g
same,Biodistribution: Blood,[1]; tumor bearing mice,0.03 ± 0.01 % IA/g
same,Biodistribution: Heart,[1]; tumor bearing mice,0.44 ± 0.09 % IA/g
same,Biodistribution: Intestine,[1]; tumor bearing mice,5.05 ± 1.24 % IA/g
same,Biodistribution: Kidney,[1]; tumor bearing mice,3.19 ± 0.18 % IA/g
same,Biodistribution: Liver,[1]; tumor bearing mice,3.87 ± 0.81 % IA/g
same,Biodistribution: Lungs,[1]; tumor bearing mice,1.22 ± 0.25 % IA/g
same,Biodistribution: Muscle,[1]; tumor bearing mice,0.20 ± 0.07 % IA/g
same,Biodistribution: Spleen,[1]; tumor bearing mice,1.51 ± 0.22 % IA/g
same,Biodistribution: Stomach,[1]; tumor bearing mice,0.96 ± 0.20 % IA/g
same,M21/blood ratio,[1]; tumor bearing mice,146
same,M21/liver ratio,[1]; tumor bearing mice,1.13
same,M21/lung ratio,[1]; tumor bearing mice,3.59
same,M21/muscle ratio,[1]; tumor bearing mice,21.9
same,% RCP after incubation with excess Cys,[2]; 3 h,75.93%
same,% RCP after incubation with excess Cys,[2]; 24 h,27.31%
same,Stability toward Cys transchelation relative to neutral complexes,[2]; versus complex 1 and complex 11,higher stability toward Cys transchelation
same,Sera stability,"[3]; human and rat sera, 3 h",high sera stability
same,In vitro stability (HPLC peaks versus control),"[3]; human serum, rat serum, rat kidneys homogenate, rat liver homogenate, 2 h",remarkable in vitro stability
same,Stability in RPMI1640 medium,[4],found stable
same,Radiochemical purity (RCP) in cell culture media,"[4]; 37° C., 30 min, 1 and 2 h",> 90%
same,"In vivo metabolism (urine HPLC, FIG. 12)",[5],remained stably incorporated into the structure of the final complex
same,Isomeric conversion a vs b,[6],reversible a vs b and b vs a conversion
